Data on 44 molecules can be found in patent publication US20210388087A1.

To fix the notation:
B1: H183/L072 VL F96I (antibody, name in Kabat numbering, V domains shown)
VH: QVQLVESGGGLVQPGRSLRLSCAASGFTFSNAWMHWVRQAPGKGLEWVAQIKDKGNAYAAYYAPSVKGRFTISRDDSKNSIYLQMNSLKTEDTAVYYCHYVHYASASTVLPAFGVDAWGQGTTVTVSS
VL: DIVMTQSPLSLPVTPGEPASISCQASQELVHMNRNTYLHWYQQKPGQAPRLLIYKVSNRFPGVPDRFSGSGSGTDFTLKISRVEAEDVGVYYCAQGTSVPITFGQGTKLEIK
B2: H183/L072 VL K50M (antibody, name in Kabat numbering, V domains shown)
VH: B1 VH
VL: B1 VL with K55M, I101F
B3: H183/L072 VL Q90N (antibody, name in Kabat numbering, V domains shown)
VH: B1 VH
VL: B1 VL with Q95N, I101F
B4: H183/L072 VL K50N (antibody, name in Kabat numbering, V domains shown)
VH: B1 VH
VL: B1 VL with K55N, I101F
B5: H183/L072 VL K50L (antibody, name in Kabat numbering, V domains shown)
VH: B1 VH
VL: B1 VL with K55L, I101F
B6: H183/L072 VL S93P (antibody, name in Kabat numbering, V domains shown)
VH: B1 VH
VL: B1 VL with S98P, I101F
B7: H183/L072 VL F96L (antibody, name in Kabat numbering, V domains shown)
VH: B1 VH
VL: B1 VL with I101L
B8: H183/L072 VL P95G (antibody, name in Kabat numbering, V domains shown)
VH: B1 VH
VL: B1 VL with P100G, I101F
B9: H183/L072 VL G91R (antibody, name in Kabat numbering, V domains shown)
VH: B1 VH
VL: B1 VL with G96R, I101F
B10: H183/L072 VL V51P (antibody, name in Kabat numbering, V domains shown)
VH: B1 VH
VL: B1 VL with V56P, I101F
B11: H183/L072 VL F96N (antibody, name in Kabat numbering, V domains shown)
VH: B1 VH
VL: B1 VL with I101N
B12: H183/L072 VL V51N (antibody, name in Kabat numbering, V domains shown)
VH: B1 VH
VL: B1 VL with V56N, I101F
B13: H183/L072 VL V94G (antibody, name in Kabat numbering, V domains shown)
VH: B1 VH
VL: B1 VL with V99G, I101F
B14: H183/L072 VL P95V (antibody, name in Kabat numbering, V domains shown)
VH: B1 VH
VL: B1 VL with P100V, I101F
B15: H183/L072 VL K50G (antibody, name in Kabat numbering, V domains shown)
VH: B1 VH
VL: B1 VL with K55G, I101F
B16: H183/L072 VL F96P (antibody, name in Kabat numbering, V domains shown)
VH: B1 VH
VL: B1 VL with I101P
B17: H183/L072 VL P95R (antibody, name in Kabat numbering, V domains shown)
VH: B1 VH
VL: B1 VL with P100R, I101F
B18: H183/L072 VL F96G (antibody, name in Kabat numbering, V domains shown)
VH: B1 VH
VL: B1 VL with I101G
B19: H183/L072 VL Q90L (antibody, name in Kabat numbering, V domains shown)
VH: B1 VH
VL: B1 VL with Q95L, I101F
B20: H183/L072 VL Q90G (antibody, name in Kabat numbering, V domains shown)
VH: B1 VH
VL: B1 VL with Q95G, I101F
B21: H183/L072 VL A89P (antibody, name in Kabat numbering, V domains shown)
VH: B1 VH
VL: B1 VL with A94P, I101F
B22: H183/L072 VL T92P (antibody, name in Kabat numbering, V domains shown)
VH: B1 VH
VL: B1 VL with T97P, I101F
B23: H183/L072 VL Q90R (antibody, name in Kabat numbering, V domains shown)
VH: B1 VH
VL: B1 VL with Q95R, I101F
B24: H183/L072 VL G91N (antibody, name in Kabat numbering, V domains shown)
VH: B1 VH
VL: B1 VL with G96N, I101F
B25: H183/L072 VL P95N (antibody, name in Kabat numbering, V domains shown)
VH: B1 VH
VL: B1 VL with P100N, I101F
B26: H183/L072 VL A89N (antibody, name in Kabat numbering, V domains shown)
VH: B1 VH
VL: B1 VL with A94N, I101F
B27: H183/L072 VL G91M (antibody, name in Kabat numbering, V domains shown)
VH: B1 VH
VL: B1 VL with G96M, I101F
B28: H183/L072 VL Q90M (antibody, name in Kabat numbering, V domains shown)
VH: B1 VH
VL: B1 VL with Q95M, I101F
B29: H183/L072 VL F96M (antibody, name in Kabat numbering, V domains shown)
VH: B1 VH
VL: B1 VL with I101M
B30: H183/L072 VL Q90V (antibody, name in Kabat numbering, V domains shown)
VH: B1 VH
VL: B1 VL with Q95V, I101F
B31: H183/L072 VL Q90P (antibody, name in Kabat numbering, V domains shown)
VH: B1 VH
VL: B1 VL with Q95P, I101F
B32: H183/L072 VL G91P (antibody, name in Kabat numbering, V domains shown)
VH: B1 VH
VL: B1 VL with G96P, I101F
B33: H183/L072 VL A89L (antibody, name in Kabat numbering, V domains shown)
VH: B1 VH
VL: B1 VL with A94L, I101F
B34: H183/L072 VL S52P (antibody, name in Kabat numbering, V domains shown)
VH: B1 VH
VL: B1 VL with S57P, I101F
B35: H183/L072 VL P95L (antibody, name in Kabat numbering, V domains shown)
VH: B1 VH
VL: B1 VL with P100L, I101F
B36: H183/L072 VL A89R (antibody, name in Kabat numbering, V domains shown)
VH: B1 VH
VL: B1 VL with A94R, I101F
B37: H183/L072 VL K50V (antibody, name in Kabat numbering, V domains shown)
VH: B1 VH
VL: B1 VL with K55V, I101F
B38: H183/L072 VL F96V (antibody, name in Kabat numbering, V domains shown)
VH: B1 VH
VL: B1 VL with I101V
B39: H183/L072 VL G91V (antibody, name in Kabat numbering, V domains shown)
VH: B1 VH
VL: B1 VL with G96V, I101F
B40: H183/L072 VL P95M (antibody, name in Kabat numbering, V domains shown)
VH: B1 VH
VL: B1 VL with P100M, I101F
B41: H183/L072 VL T97P (antibody, name in Kabat numbering, V domains shown)
VH: B1 VH
VL: B1 VL with I101F, T102P
B42: H183/L072 VL K50P (antibody, name in Kabat numbering, V domains shown)
VH: B1 VH
VL: B1 VL with K55P, I101F
B43: H183/L072 VL K50Q (antibody, name in Kabat numbering, V domains shown)
VH: B1 VH
VL: B1 VL with K55Q, I101F
B44: H183/L072 VL G91L (antibody, name in Kabat numbering, V domains shown)
VH: B1 VH
VL: B1 VL with G96L, I101F

Residue numbers refer to the chain shown, from its start. Names and notes keep the numbering of the source.

For the assay, the target named is Human CD3eg linker (human). The assay can be described thus: SPR; fold vs parent H183/L072.
Chain of Human CD3eg linker (human) (chain, as listed by the source limits assumed): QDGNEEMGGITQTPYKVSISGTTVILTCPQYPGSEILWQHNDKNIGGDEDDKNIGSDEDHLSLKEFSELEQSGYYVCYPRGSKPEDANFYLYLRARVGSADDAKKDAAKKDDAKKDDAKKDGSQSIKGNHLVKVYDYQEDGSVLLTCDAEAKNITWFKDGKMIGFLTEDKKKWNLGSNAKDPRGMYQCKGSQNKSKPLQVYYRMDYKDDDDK
On to B1, for which the fold change of affinity turned out to be 0 fold.

Turning to B2, the fold change of affinity turned out to be 0 fold.

As to B3, the fold change of affinity was 0 fold.

For the molecule B4, the fold change of affinity came to 0 fold.

For the molecule B5, the fold change of affinity was 0 fold.

Regarding B6, the fold change of affinity was 0 fold.

For the molecule B7, the fold change of affinity came to 0 fold.

Take B8: the fold change of affinity worked out at 0 fold.

As to B9, the fold change of affinity worked out at 0 fold.

Regarding B10, the fold change of affinity was 0 fold.

As for B11, the fold change of affinity was 0 fold.

As to B12, the fold change of affinity was 0 fold.

On to B13, for which the fold change of affinity was determined as 0 fold.

B14: the fold change of affinity amounted to 0 fold.

For the molecule B15, the fold change of affinity is 0 fold.

In the case of B16, the fold change of affinity was determined as 0 fold.

With B17, the fold change of affinity was 0 fold.

Consider B18, for which the fold change of affinity came to 0 fold.

Take B19: the fold change of affinity was found to be 0 fold.

With B20, the fold change of affinity is 0 fold.

Take B21: the fold change of affinity stood at 0 fold.

Consider B22, for which the fold change of affinity was 0 fold.

With B23, the fold change of affinity was 0 fold.

B24: the fold change of affinity is 0 fold.

For the molecule B25, the fold change of affinity came to 0 fold.

Consider B26, for which the fold change of affinity amounted to 0 fold.

For B27, the fold change of affinity was found to be 0 fold.

In the case of B28, the fold change of affinity worked out at 0 fold.

On to B29, for which the fold change of affinity was 0 fold.

On to B30, for which the fold change of affinity was determined as 0 fold.

As for B31, the fold change of affinity is 0 fold.

In the case of B32, the fold change of affinity amounted to 0 fold.

Consider B33, for which the fold change of affinity is 0 fold.

Consider B34, for which the fold change of affinity is 0 fold.

On to B35, for which the fold change of affinity turned out to be 0 fold.

Regarding B36, the fold change of affinity stood at 0 fold.

Regarding B37, the fold change of affinity was determined as 0 fold.

In the case of B38, the fold change of affinity was 0 fold.

Take B39: the fold change of affinity was 0 fold.

Take B40: the fold change of affinity amounted to 0 fold.

On to B41, for which the fold change of affinity is 0 fold.

With B42, the fold change of affinity came to 0 fold.

For B43, the fold change of affinity stood at 0 fold.

On to B44, for which the fold change of affinity is 0 fold.
